# Test results: PMC9905677
# What was measured:
# [1] = biological target: soluble form of human FcγRIIIb (NA2 form) composed of the extracellular domains (human) (UniProt O75015); experiment: NMR titration; 1H-15N HSQC peak intensity attenuation of the 15N-labeled protein (rituximab-Fc 120 μM, rituximab-Fab 240 μM, sFcγRIIIb 120 μM) on adding serum polyclonal IgG 120 μM, its Fab 240 μM or HSA 600 μM; 5 mM sodium phosphate, 50 mM NaCl, pH 7.4, 37°C
# rituximab-Fab (human) = experiment: as above
# [2] = biological target: extracellular region of human FcγRIIIa (158V allele), bis-glycosylated (human) (UniProt P08637)
# Chain of UniProt O75015 (O75015 17-200): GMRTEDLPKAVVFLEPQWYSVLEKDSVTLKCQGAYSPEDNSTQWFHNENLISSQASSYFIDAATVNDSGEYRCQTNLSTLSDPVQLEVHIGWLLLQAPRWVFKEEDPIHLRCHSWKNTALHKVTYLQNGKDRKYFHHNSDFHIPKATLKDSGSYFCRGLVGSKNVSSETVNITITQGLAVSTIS
average level of HSQC peak intensity attenuation (Io-Ip)/Io [1],average level of HSQC peak intensity attenuation (Io-Ip)/Io (rituximab-Fab (human)),"EC50 of the ADCC reporter assay (Jurkat/FcγRIIIa/NFAT-Luc effector cells, luciferase) [2]",Substance
0.41,0.6,–,human serum albumin (from UniProt P02768 25-609) (natural protein)
–,–,0.02 µg/mL,rituximab (antibody)
